Laboratory results from the Immune Epitope Database (IEDB).
Values belong to the sequence of their own block, whether it stands above or below them.

How the values were obtained:
HLA-B*51:01 = assay: IEDB peptide-MHC binding, purified MHC/competitive/radioactivity; filed as Kd, often an IC50 or EC50 that approximates it; ≥ and ≤ were set here for values at or beyond the usual limits of such assays
HLA-B*53:01 = assay: as above
HLA-B*35:01 = assay: as above
HLA-B*07:02 = assay: as above
HLA-B*54:01 = assay: as above
HLA-A*68:02 = assay: as above
HLA-A*02:01 [1] = assay: as above
HLA-A*02:03 = assay: as above
HLA-A*02:02 = assay: as above
HLA-A*02:06 = assay: as above
HLA-B*44:02 = assay: as above; conditions: source organism: Dengue virus 4 Philippines/H241/1956
HLA-B*08:01 = assay: as above
HLA-B*15:01 [2] = assay: as above
HLA-B*18:01 = assay: IEDB peptide-MHC binding, purified MHC/competitive/fluorescence; filed as Kd, often an IC50 or EC50 that approximates it; ≥ and ≤ were set here for values at or beyond the usual limits of such assays; conditions: source organism: Camelpox virus CMS
HLA-B*27:03 = assay: as above; conditions: source organism: Camelpox virus CMS
HLA-B*57:01 = assay: as above; conditions: source organism: Camelpox virus CMS
HLA-A*02:01 [3] = assay: as above; conditions: source organism: Camelpox virus CMS
HLA-B*39:01 = assay: as above; conditions: source organism: Camelpox virus CMS
HLA-A*26:01 = assay: as above; conditions: source organism: Camelpox virus CMS
HLA-B*46:01 = assay: as above; conditions: source organism: Camelpox virus CMS
HLA-B*15:01 [4] = assay: as above; conditions: source organism: Camelpox virus CMS
HLA-A*03:01 = assay: as above; conditions: source organism: Camelpox virus CMS
[5] = source organism: SARS coronavirus Tor2
[6] = source organism: Triticum aestivum
[7] = source organism: Dengue virus 4 Philippines/H241/1956
[8] = source organism: Vaccinia virus WR
[9] = source organism: Dengue virus 1 Brazil/97-11/1997
[10] = source organism: Lassa virus Josiah
[11] = source organism: Vaccinia virus Copenhagen
[12] = source organism: Dengue virus 3 Martinique/1243/1999
[13] = source organism: HIV-1 M:B_ARV2/SF2

Sequence: LPDDFMGCVL
Kd (HLA-B*51:01; [5]): 98.4 nM | Kd (HLA-B*53:01; [5]): 499 nM | Kd (HLA-B*35:01; [5]): 353 nM | Kd (HLA-B*07:02; [5]): 105 nM | Kd (HLA-B*54:01; [5]): 5490 nM

Sequence: LPVNVAFEL
Kd (HLA-B*51:01; [5]): 1.14 nM | Kd (HLA-B*53:01; [5]): 10.4 nM | Kd (HLA-B*35:01; [5]): 1.89 nM | Kd (HLA-B*54:01; [5]): 420 nM

Kd (HLA-A*68:02; [6]): ≥ 56500 nM | Kd (HLA-A*02:01 [1]; [6]): 91.3 nM | Kd (HLA-A*02:03; [6]): 18.8 nM | Kd (HLA-A*02:02; [6]): 436 nM | Kd (HLA-A*02:06; [6]): 27.5 nM
Sequence: LQQSTYQLV

Sequence: MEKLRIKGM
Kd (HLA-B*44:02): 1260 nM | Kd (HLA-B*08:01; [7]): 20.8 nM

Sequence: MPEKRNVVVV
Kd (HLA-B*51:01; [8]): 2090 nM | Kd (HLA-B*53:01; [8]): 13200 nM | Kd (HLA-B*35:01; [8]): 4350 nM | Kd (HLA-B*07:02; [8]): 194 nM | Kd (HLA-B*54:01; [8]): 40.6 nM

Sequence: MPILTLTRAL
Kd (HLA-B*51:01; [5]): 8.24 nM | Kd (HLA-B*53:01; [5]): 202 nM | Kd (HLA-B*35:01; [5]): 13.7 nM | Kd (HLA-B*07:02; [5]): 9.46 nM | Kd (HLA-B*54:01; [5]): 85.4 nM

Sequence: MPVETLFGSY
Kd (HLA-B*51:01; [8]): ≥ 69600 nM | Kd (HLA-B*53:01; [8]): 2.28 nM | Kd (HLA-B*35:01; [8]): 3.28 nM | Kd (HLA-B*07:02; [8]): ≥ 44000 nM | Kd (HLA-B*54:01; [8]): 106 nM

Sequence: MQRKHGGML
Kd (HLA-B*08:01; [9]): 170 nM | Kd (HLA-B*15:01 [2]; [9]): 100 nM

Sequence: MSIISFFPF
Kd (HLA-B*08:01; [8]): 857 nM | Kd (HLA-B*15:01 [2]; [8]): 0.168 nM

Sequence: NLYDHALMSI
Kd (HLA-A*68:02; [10]): 75 nM | Kd (HLA-A*02:03; [10]): 0.543 nM | Kd (HLA-A*02:02; [10]): 1.75 nM | Kd (HLA-A*02:06; [10]): 23.1 nM

Sequence: NRMEIFLVL
Kd (HLA-B*08:01; [11]): 4.85 nM

Sequence: NSTHEMYWV
Kd (HLA-A*68:02; source organism: Dengue virus 2 Jamaica/1409/1983): 92.1 nM

Sequence: PPFTQHLLNI
Kd (HLA-B*51:01; [8]): 12500 nM | Kd (HLA-B*53:01; [8]): ≥ 20900 nM | Kd (HLA-B*35:01; [8]): ≥ 69900 nM | Kd (HLA-B*07:02; [8]): ≥ 69600 nM | Kd (HLA-B*54:01; [8]): ≥ 69900 nM

Kd (HLA-A*68:02; source organism: Homo sapiens): 13600 nM | Kd (HLA-A*02:03; source organism: Homo sapiens): 96 nM | Kd (HLA-A*02:06; source organism: Homo sapiens): 4040 nM
Sequence: RLFTKVKPLL

Sequence: SFKFRPGSL
Kd (HLA-B*08:01; [8]): 2.98 nM

Sequence: SIFIRMLIL
Kd (HLA-B*08:01; [11]): 10.1 nM

Sequence: SIFLHLVKI
Kd (HLA-A*02:01 [1]; [10]): 385 nM

Sequence: SPNLAWPLIV
Kd (HLA-B*51:01; [5]): 2790 nM | Kd (HLA-B*53:01; [5]): 1660 nM | Kd (HLA-B*35:01; [5]): 887 nM | Kd (HLA-B*07:02; [5]): 123 nM | Kd (HLA-B*54:01; [5]): 556 nM

Sequence: SRISRFANL
Kd (HLA-B*08:01; [8]): 19.6 nM

Sequence: TASLVMLLV
Kd (HLA-A*68:02; source organism: Dengue virus 4 Dominica/814669/1981): 82.5 nM

Sequence: TSAWVMYGT
Kd (HLA-A*68:02; [7]): 1.7 nM

Sequence: TVVVGDIIGV
Kd (HLA-A*68:02; [12]): 1.87 nM | Kd (HLA-A*02:06; [12]): 2.44 nM

Sequence: VIYQYMDDL
Kd (HLA-A*68:02; [13]): ≥ 56200 nM | Kd (HLA-A*02:01 [1]; [13]): 5840 nM | Kd (HLA-A*02:03; [13]): 4740 nM | Kd (HLA-A*02:02; [13]): 156 nM | Kd (HLA-A*02:06; [13]): 7680 nM

Sequence: VSRQEKGKSL
Kd (HLA-B*08:01; source organism: Dengue virus 2 Peru/IQT2913/1996): 967 nM

Sequence: WVIDTLNGI
Kd (HLA-B*18:01): ≥ 20000 nM | Kd (HLA-B*27:03): ≥ 20000 nM | Kd (HLA-B*57:01): ≥ 20000 nM | Kd (HLA-A*02:01 [3]): 7.4 nM | Kd (HLA-B*39:01): ≥ 20000 nM | Kd (HLA-A*26:01): ≥ 20000 nM | Kd (HLA-B*46:01): ≥ 20000 nM | Kd (HLA-B*15:01 [4]): ≥ 20000 nM | Kd (HLA-A*03:01): ≥ 20000 nM

Sequence: YAKSKRMAE
Kd (HLA-B*08:01; [8]): 31.1 nM

Kd (HLA-B*51:01; [6]): 998 nM | Kd (HLA-B*53:01; [6]): 5150 nM | Kd (HLA-B*35:01; [6]): 4880 nM | Kd (HLA-B*07:02; [6]): 11100 nM | Kd (HLA-B*54:01; [6]): 13300 nM
Sequence: YPSGQGSF
